Measurements published in paper PMC7505656.

Experiments:
[1] = target: E-cadherin extracellular domain L175D cis-binding mutant, hexahistidine-tagged (human) (UniProt P12830); experiment: single-molecule tracking (TIRFM), cluster size from trajectory friction factors; AF555 labelled E-cad on DOPC supported lipid bilayers with 5% DGS-NTA(Ni); high, intermediate and low surface coverage (~39,000, ~1,000, ~0.6 E-cad/µm^2); raw friction factor data adapted from Thompson et al., 2019 and analysed here
[2] = target: E-cadherin extracellular domain L175D cis-binding mutant, hexahistidine-tagged (human) (UniProt P12830); experiment: single-molecule tracking cluster size distributions + kinetic Monte Carlo simulation; effective rate constants worked out from kMC on/off rates that were optimised so that simulated cluster size distributions match the experimental ones (1,250 E-cad/µm^2 in the simulation)
[3] = target: wild-type E-cadherin extracellular domain, hexahistidine-tagged (human) (UniProt P12830); experiment: FRET or BRET; single-molecule intermolecular FRET by TIRF microscopy; high-coverage wild-type (~1,400 E-cad/µm^2; 5 × 10^-7 M total in solution); AF555 donor, AF647 acceptor and unlabelled E-cad tethered by His6 to a DOPC/DGS-NTA(Ni) 19:1 supported lipid bilayer; 25 mM HEPES, 100 mM NaCl, 10 mM KCl, 2 mM CaCl2, 0.05 mM NiSO4, pH 8; average dissociation rate constant from a three-state Markov model
[4] = target: E-cadherin extracellular domain L175D cis-binding mutant, hexahistidine-tagged (human) (UniProt P12830); experiment: FRET or BRET; single-molecule intermolecular FRET by TIRF microscopy; high-coverage mutant (~1,300 E-cad/µm^2; 5 × 10^-7 M total in solution); AF555 labelled wild-type donor with AF647 labelled mutant acceptor and unlabelled mutant, tethered by His6 to a DOPC/DGS-NTA(Ni) supported lipid bilayer; same buffer, pH 8; three-state Markov model
[5] = target: wild-type E-cadherin extracellular domain, hexahistidine-tagged (human) (UniProt P12830); experiment: single-molecule tracking (TIRFM), cluster size from trajectory friction factors; AF555 labelled E-cad on DOPC supported lipid bilayers with 5% DGS-NTA(Ni); high, intermediate and low surface coverage (~39,000, ~1,000, ~0.6 E-cad/µm^2); raw friction factor data adapted from Thompson et al., 2019 and analysed here
[6] = target: wild-type E-cadherin extracellular domain, hexahistidine-tagged (human) (UniProt P12830); experiment: single-molecule tracking cluster size distributions + kinetic Monte Carlo simulation; effective rate constants worked out from kMC on/off rates that were optimised so that simulated cluster size distributions match the experimental ones (1,250 E-cad/µm^2 in the simulation)
[7] = target: wild-type E-cadherin extracellular domain, hexahistidine-tagged (human) (UniProt P12830); experiment: FRET or BRET; single-molecule intermolecular FRET by TIRF microscopy; intermediate-coverage wild-type (~1,000 E-cad/µm^2; 3 × 10^-7 M total in solution); AF555 donor, AF647 acceptor and unlabelled E-cad tethered by His6 to a DOPC/DGS-NTA(Ni) supported lipid bilayer; same buffer, pH 8; three-state Markov model

characteristic cluster size [1] | cluster size (E-cad per cluster) [1] | effective koff, nonspecific cis-interaction [2] | effective kon, nonspecific cis-interaction [2] | koff [3] | koff [4] | characteristic cluster size [5] | cluster size (E-cad per cluster) [5] | binding affinity, specific cis-interaction [6] | effective koff, specific cis-interaction [6] | effective kon, specific cis-interaction [6] | koff [7] | Substance
29 E-cad | 40 E-cad | 1000 s⁻¹ | 1.1e+06 M⁻¹ s⁻¹ | – | – | – | – | – | – | – | – | E-cadherin extracellular domain L175D cis-binding mutant, hexahistidine-tagged (from UniProt P12830 155-709) (domain or fragment)
– | – | – | – | 1.04 s⁻¹ | 1.4 s⁻¹ | 33 E-cad | 40 to 160 E-cad | 10 µM | 100 s⁻¹ | 2.7e+06 M⁻¹ s⁻¹ | 3.17 s⁻¹ | wild-type E-cadherin extracellular domain, hexahistidine-tagged (from UniProt P12830 155-709) (domain or fragment)
